According to US6034062A, “Bone morphogenetic protein (BMP)-9 compositions and their uses” (Genetics Institute, Inc., priority 1997, dated 2000):

B1: BMP-6: BMP protein, cytokine in cartilage assay and competing ligand (protein)
chain: SASSRRRQQSRNRSTQSQDVARVSSASDYNSSELKTACRKHELYVSFQDLGWQDWIIAPKGYAANYCDGECSFPLNAHMNATNHAIVQTLVHLMNPEYVPKPCCAPTKLNAISVLYFDDNSNVILKKYRNMVVRACGCH
B2: BMP-4: BMP protein, cytokine in cartilage assay and competing ligand (protein)
chain: SPKHHSQRARKKNKNCRRHSLYVDFSDVGWNDWIVAPPGYQAFYCHGDCPFPLADHLNSTNHAIVQTLVNSVNSSIPKACCVPTELSAISMLYLDEYDKVVLKNYQEMVVEGCGCR
B3: TGF-β2: transforming growth factor β2 (protein)
chain: ALDAAYCFRNVQDNCCLRPLYIDFKRDLGWKWIHEPKGYNANFCAGACPYLWSSDTQHSRVLSLYNTINPEASASPCCVSQDLEPLTILYYIGKTPKIEQLSNMIVKSCKCS
B4: BMP-5: BMP protein used as unlabeled competing ligand (protein)
chain: AANKRKNQNRNKSSSHQDSSRMSSVGDYNTSEQKQACKKHELYVSFRDLGWQDWIIAPEGYAAFYCDGECSFPLNAHMNATNHAIVQTLVHLMFPDHVPKPCCAPTKLNAISVLYFDDSSNVILKKYRNMVVRSCGCH
B5: BMP-3: BMP protein used as unlabeled competing ligand (protein)
chain: QWIEPRNCARRYLKVDFADIGWSEWIISPKSFDAYYCSGACQFPMPKSLKPSNHATIQSIVRAVGVVPGIPEPCCVPEKMSSLSILFFDENKNVVLKVYPNMTVESCACR
B6: BMP-7: BMP protein used as unlabeled competing ligand (protein)
chain: STGSKQRSQNRSKTPKNQEALRMANVAENSSSDQRQACKKHELYVSFRDLGWQDWIIAPEGYAAYYCEGECAFPLNSYMNATNHAIVQTLVHFINPETVPKPCCAPTQLNAISVLYFDDSSNVILKKYRNMVVRACGCH
B7: BMP-12: BMP protein used as unlabeled competing ligand (protein, UniProt Q7Z4P5 322-450, looked up)
Growth/differentiation factor …: TALAGTRTAQGSGGGAGRGHGRRGRSRCSRKPLHVDFKELGWDDWIIAPLDYEAYHCEGLCDFPLRSHLEPTNHAIIQTLLNSMAPDAAPASCCVPARLSPISILYIDAANNVVYKQYEDMVVEACGCR

Test system: Articular cartilage explants from calf carpal joints
Test: Articular cartilage assay (proteoglycan synthesis, sulfate incorporation)
Assay type: cell-based
Details: 100 ng/ml, calf articular cartilage explants
Description: The effect of BMP-9 on articular cartilage proteoglycan and DNA synthesis is assayed to determine if BMP-9 is involved in the regulation of metabolism of differentiated articular cartilage.
Articular cartilage explants from calf carpal joints are maintained in DMEM with 50 μg/ml ascorbate, 4 mM glutamine and antibiotics for 3 days. Cytokines (rhBMP-2, rhBMP-4, rhBMP-6 and rhBMP-9, IGF-1, bFGF (1-1000 ng/ml), and TGFβ (1-100 ng/ml)) are added to the medium and culture is continued for 3 more days. Medium is changed daily. Twenty-four hours prior to harvest, explants are pulsed with 50 μCi/ml ^35 SO4 or 25 μCi/ml ^3 H-thymidine. Explants are solubilized and separation of free isotope is performed by gel chromatography. Total DNA of each explant is measured by a spectrophotometric assay.

| Molecule | proteoglycan synthesis |
| --- | --- |
| B1 | significantly more active in stimulating proteoglycan synthesis |
| B2 | significantly more active in stimulating proteoglycan synthesis |

Test system: BMP-9 receptors expressed on HepG2 cells
Test: 125I-BMP-9 binding to HepG2 cells
Details: HepG2 cells, 125I-BMP-9 and 250-fold excess of unlabeled ligand
Description: BMP-9 responsiveness in parenchymal liver cells is tested by screening four liver cell lines for their ability to bind iodinated, CHO-derived BMP-9. […] Specific binding of BMP-9 to HepG2 cells is carried out by incubating HepG2 cells grown to confluence in Dulbecco's Modified Eagle's Medium (DME) containing 10% heat-inactivated fetal calf serum (FCS) on gelatinized 6 well plates with 2 ng/ml ^125 I-BMP-9 and increasing concentrations of unlabelled BMP-9 in binding buffer (136.9 mM NaCl, 5.37 mM KCl, 1.26 mM CaCl2, 0.64 mM MgSO4, 0.34 mM Na2 HPO4, 0.44 mM KH2 PO4, 0.49 mM MgCl2, 25 mM HEPES and 0.5% BSA, pH 7.4) for 20 hours at 4° C. to achieve binding equilibrium. This incubation follows a one hour preincubation at 37° C. in binding buffer alone. For crosslinking experiments, the cells were incubated with 500 μM disuccinimidyl suberate for 20 minutes at […] following binding. Cell extracts were analyzed on SDS-PAGE. […] To test the binding specificity of the receptors for BMP-9, HepG2 cells were incubated with ^125 I-BMP-9 and a 250-fold excess of different unlabeled ligands.

| Molecule | crossreactivity of BMP-9 receptors with unlabeled ligand |
| --- | --- |
| B1 | no crossreactivity |
| B3 | no crossreactivity |
| B4 | no crossreactivity |
| B2 | limited crossreactivity |
| B5 | no crossreactivity |
| B6 | no crossreactivity |
| B7 | no crossreactivity |
